From patent US20090276160A1

Legend:
Experiment in all cases: cell-based or functional assay
[1] = target: Plasmin (Haematologic Technologies) (human) (UniProt P00747)
[2] = target: Activated Protein C (Haematologic Technologies) (human) (UniProt P04070)
[3] = target: Factor XIa (Haematologic Technologies) (human) (UniProt P03951)
[4] = target: Factor XIIa (American Diagnostica) (human) (UniProt P00748)
[5] = target: Bovine trypsin (Worthington) (bovine) (UniProt P00760)
[6] = target: Thrombin (Haematologic Technologies) (human) (UniProt P00734)
[7] = target: tPA (Activase, Genentech) (human) (UniProt P00750)
Sequence of tPA (Activase, Genentech) (human) (P00750 36-562 limits assumed): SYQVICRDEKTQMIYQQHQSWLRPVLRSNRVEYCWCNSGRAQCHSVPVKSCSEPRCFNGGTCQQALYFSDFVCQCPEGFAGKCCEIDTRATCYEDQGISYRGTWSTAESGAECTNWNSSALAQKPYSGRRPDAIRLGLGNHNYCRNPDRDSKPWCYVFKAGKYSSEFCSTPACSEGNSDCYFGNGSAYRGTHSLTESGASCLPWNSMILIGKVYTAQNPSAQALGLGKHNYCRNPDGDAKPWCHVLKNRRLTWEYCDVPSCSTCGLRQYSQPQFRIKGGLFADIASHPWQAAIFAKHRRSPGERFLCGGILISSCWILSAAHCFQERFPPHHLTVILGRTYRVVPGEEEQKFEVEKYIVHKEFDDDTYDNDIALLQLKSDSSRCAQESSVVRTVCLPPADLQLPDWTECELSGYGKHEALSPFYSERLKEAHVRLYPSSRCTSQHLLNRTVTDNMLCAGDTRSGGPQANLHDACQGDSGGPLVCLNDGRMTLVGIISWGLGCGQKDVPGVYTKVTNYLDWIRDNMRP

[8] = target: T1, Matriptase (residues 615-855) (human) (UniProt Q9Y5Y6)
T1 sequence (looked up): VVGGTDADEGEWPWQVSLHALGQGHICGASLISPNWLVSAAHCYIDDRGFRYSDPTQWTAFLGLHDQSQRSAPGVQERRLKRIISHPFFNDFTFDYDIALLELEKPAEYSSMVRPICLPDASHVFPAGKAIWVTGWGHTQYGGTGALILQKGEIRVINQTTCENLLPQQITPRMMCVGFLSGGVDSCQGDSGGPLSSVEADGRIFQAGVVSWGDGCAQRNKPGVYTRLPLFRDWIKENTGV

[9] = target: Hepsin (residues 45-417) (human) (UniProt P05981)
Sequence of Hepsin (residues 45-417) (human) (P05981 45-417 limits assumed): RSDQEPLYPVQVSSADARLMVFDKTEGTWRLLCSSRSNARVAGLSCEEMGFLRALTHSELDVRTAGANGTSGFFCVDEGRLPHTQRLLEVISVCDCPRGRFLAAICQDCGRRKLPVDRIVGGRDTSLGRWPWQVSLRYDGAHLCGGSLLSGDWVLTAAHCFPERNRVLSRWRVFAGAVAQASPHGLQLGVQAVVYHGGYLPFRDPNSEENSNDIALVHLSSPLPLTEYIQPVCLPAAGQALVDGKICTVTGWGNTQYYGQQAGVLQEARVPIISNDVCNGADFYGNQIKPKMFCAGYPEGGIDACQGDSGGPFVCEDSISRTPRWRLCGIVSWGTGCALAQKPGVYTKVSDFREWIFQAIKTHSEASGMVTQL

[10] = target: Chymotrypsin (Sigma) (human) (UniProt P17538)
Sequence of Chymotrypsin (Sigma) (human) (P17538 19-263): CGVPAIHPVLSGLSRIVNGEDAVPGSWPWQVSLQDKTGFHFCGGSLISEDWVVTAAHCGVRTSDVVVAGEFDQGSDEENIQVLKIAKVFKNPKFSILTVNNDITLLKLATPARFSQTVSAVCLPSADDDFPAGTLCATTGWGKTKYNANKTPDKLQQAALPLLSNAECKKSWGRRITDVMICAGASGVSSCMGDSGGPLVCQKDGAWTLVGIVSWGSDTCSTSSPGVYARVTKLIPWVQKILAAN

uPA (Chemicon) (human) = uPA (Chemicon) (human) (UniProt P00749)
[11] = target: Factor Xa (Haematologic Technologies) (human) (UniProt P00742)
Sequence of Factor Xa (Haematologic Technologies) (human) (P00742 41-179 limits assumed, chain 1 of 2): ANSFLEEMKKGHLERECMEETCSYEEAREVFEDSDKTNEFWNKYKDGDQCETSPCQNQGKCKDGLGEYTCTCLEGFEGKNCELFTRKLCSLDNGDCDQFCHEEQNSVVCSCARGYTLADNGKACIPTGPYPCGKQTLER
Sequence of Factor Xa (Haematologic Technologies) (human) (P00742 235-488 limits assumed, chain 2 of 2): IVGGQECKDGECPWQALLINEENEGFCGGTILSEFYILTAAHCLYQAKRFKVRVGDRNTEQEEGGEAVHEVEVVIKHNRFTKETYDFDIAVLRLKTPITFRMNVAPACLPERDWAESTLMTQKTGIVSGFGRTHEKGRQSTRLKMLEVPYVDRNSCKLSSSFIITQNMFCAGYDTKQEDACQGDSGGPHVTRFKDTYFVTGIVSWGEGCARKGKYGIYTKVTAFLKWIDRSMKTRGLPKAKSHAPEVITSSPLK

[12] = target: T2, Complement factor C1s (Calbiochem) (human) (UniProt P09871)
T2 sequence (looked up): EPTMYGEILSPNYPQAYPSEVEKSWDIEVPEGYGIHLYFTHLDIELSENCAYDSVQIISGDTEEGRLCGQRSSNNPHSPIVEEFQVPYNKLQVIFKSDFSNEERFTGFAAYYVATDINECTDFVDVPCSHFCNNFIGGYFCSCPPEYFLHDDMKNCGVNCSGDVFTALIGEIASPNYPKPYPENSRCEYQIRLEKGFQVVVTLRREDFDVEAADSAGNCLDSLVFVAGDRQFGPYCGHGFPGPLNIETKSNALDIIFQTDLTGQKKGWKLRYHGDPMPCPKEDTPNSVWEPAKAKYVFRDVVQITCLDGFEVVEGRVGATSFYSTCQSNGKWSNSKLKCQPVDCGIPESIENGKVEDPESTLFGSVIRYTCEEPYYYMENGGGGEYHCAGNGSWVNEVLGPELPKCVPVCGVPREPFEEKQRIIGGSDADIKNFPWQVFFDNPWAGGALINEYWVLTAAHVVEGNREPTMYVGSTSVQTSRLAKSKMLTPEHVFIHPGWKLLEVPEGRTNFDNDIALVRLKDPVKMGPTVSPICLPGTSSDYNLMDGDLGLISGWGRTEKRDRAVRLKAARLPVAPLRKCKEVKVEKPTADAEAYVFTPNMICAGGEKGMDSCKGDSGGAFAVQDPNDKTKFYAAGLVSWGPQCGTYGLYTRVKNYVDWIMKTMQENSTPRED

[13] = target: Hepatocyte growth factor activator (HGFA), activated 34 kDa short form, residues Val373 to Ser655 with a C-terminal poly-histidine tag (human) (UniProt Q04756)
Sequence of Hepatocyte growth factor activator (HGFA), activated 34 kDa short form, residues Val373 to Ser655 with a C-terminal poly-histidine tag (human) (Q04756 373-407, chain 1 of 2): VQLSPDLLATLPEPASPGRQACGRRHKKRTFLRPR
Sequence of Hepatocyte growth factor activator (HGFA), activated 34 kDa short form, residues Val373 to Ser655 with a C-terminal poly-histidine tag (human) (Q04756 408-655, chain 2 of 2): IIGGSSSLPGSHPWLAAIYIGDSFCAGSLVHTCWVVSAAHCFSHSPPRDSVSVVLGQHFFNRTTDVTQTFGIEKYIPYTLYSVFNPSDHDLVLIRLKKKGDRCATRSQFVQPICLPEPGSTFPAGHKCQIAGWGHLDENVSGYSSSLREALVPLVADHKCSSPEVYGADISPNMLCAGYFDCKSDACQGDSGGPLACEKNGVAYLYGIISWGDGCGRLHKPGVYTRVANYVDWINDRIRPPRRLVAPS

[14] = target: Plasma kallikrein (American Diagnostica) (human) (UniProt P03952)
Sequence of Plasma kallikrein (American Diagnostica) (human) (P03952 20-638 limits assumed): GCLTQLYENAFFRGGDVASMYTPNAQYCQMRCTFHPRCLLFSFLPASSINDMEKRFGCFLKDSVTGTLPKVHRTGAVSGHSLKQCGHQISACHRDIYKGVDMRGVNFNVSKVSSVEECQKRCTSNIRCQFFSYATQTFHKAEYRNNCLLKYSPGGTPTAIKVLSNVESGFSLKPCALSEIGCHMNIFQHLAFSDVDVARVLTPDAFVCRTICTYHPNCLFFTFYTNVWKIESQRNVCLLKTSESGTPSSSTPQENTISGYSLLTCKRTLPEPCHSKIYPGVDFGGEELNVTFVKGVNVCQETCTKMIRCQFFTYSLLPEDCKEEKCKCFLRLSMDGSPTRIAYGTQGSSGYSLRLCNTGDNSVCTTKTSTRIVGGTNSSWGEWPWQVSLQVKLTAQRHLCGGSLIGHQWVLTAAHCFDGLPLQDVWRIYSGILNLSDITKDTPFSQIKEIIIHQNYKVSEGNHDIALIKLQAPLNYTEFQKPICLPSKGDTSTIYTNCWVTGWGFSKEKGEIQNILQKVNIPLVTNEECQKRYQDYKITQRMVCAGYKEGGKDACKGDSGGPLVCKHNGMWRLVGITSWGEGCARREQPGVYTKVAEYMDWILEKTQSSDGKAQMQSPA

[15] = target: Tissue factor/factor VIIa complex: human tissue factor (residues 1-219) with human recombinant FVIIa (human) (UniProt P13726)

Sequence of sHAI-1B, soluble HAI-1B ectodomain (O43278 36-465 limits assumed): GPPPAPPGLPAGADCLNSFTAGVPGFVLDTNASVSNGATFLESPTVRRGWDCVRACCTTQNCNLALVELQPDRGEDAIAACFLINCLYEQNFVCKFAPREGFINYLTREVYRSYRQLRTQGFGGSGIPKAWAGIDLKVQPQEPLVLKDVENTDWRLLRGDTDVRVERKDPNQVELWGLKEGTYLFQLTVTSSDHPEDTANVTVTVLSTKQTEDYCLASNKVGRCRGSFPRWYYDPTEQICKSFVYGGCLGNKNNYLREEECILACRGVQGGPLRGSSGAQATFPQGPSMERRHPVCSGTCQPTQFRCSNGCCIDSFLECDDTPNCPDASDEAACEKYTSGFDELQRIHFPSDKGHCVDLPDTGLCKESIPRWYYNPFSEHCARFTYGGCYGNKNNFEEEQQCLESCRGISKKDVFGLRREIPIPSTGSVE
Sequence of Bovine trypsin (Worthington) (bovine) (P00760 24-246): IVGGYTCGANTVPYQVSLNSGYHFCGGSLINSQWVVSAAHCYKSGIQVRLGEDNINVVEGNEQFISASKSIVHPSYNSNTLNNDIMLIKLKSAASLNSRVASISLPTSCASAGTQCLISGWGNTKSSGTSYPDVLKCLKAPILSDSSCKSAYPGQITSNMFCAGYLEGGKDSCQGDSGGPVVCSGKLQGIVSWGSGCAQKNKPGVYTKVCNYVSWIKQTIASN
Sequence of Plasmin (Haematologic Technologies) (human) (P00747 97-810 limits assumed): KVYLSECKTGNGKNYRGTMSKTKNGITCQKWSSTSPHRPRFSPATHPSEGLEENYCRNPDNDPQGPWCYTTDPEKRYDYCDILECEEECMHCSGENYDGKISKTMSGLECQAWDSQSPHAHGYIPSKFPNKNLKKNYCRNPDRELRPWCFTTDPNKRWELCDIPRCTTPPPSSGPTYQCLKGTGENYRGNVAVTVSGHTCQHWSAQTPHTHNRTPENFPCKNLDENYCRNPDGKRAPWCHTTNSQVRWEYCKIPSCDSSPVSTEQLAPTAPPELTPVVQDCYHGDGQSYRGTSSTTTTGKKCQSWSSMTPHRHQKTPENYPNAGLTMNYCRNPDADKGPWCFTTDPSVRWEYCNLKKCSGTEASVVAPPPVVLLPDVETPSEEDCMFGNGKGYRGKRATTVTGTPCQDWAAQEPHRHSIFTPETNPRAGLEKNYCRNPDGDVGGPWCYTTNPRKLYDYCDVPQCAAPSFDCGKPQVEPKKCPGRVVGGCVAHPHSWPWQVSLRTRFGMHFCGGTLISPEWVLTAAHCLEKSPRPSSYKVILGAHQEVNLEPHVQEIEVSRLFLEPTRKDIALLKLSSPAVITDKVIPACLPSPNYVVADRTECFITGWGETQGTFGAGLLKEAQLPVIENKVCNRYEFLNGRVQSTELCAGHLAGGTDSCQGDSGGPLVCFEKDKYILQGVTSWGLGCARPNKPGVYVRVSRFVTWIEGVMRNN
Sequence of Activated Protein C (Haematologic Technologies) (human) (P04070 43-197, form in doubt, chain 1 of 2): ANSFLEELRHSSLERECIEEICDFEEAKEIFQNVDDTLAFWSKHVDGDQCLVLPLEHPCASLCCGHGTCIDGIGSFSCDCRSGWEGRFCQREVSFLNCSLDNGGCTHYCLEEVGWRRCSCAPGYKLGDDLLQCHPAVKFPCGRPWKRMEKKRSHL
Sequence of Activated Protein C (Haematologic Technologies) (human) (P04070 212-461, form in doubt, chain 2 of 2): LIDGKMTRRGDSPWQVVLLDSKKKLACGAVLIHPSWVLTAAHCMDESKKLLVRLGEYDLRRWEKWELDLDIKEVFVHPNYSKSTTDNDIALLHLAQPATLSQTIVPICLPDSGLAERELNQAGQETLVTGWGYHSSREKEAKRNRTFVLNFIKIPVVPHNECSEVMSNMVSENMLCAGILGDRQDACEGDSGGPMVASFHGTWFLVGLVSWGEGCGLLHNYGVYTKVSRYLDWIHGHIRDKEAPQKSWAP
Sequence of Factor XIIa (American Diagnostica) (human) (P00748 20-615 limits assumed): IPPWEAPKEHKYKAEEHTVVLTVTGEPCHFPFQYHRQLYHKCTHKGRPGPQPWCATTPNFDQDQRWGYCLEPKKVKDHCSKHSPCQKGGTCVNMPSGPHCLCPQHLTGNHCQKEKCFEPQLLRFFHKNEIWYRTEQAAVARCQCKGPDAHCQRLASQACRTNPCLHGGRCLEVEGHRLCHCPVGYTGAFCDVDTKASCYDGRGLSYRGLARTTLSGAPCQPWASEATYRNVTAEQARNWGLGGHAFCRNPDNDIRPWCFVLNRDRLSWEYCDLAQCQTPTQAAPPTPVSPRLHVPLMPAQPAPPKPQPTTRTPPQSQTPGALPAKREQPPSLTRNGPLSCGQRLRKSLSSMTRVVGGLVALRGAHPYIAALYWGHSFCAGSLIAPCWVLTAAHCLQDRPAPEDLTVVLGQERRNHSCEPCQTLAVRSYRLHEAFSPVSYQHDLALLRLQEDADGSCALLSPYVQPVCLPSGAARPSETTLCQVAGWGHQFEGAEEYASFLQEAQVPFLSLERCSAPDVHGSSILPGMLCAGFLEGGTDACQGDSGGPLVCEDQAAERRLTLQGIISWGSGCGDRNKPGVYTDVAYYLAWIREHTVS

IC50 (nM), inhibition of enzyme activity on chromogenic substrate [1]: 399 nM
IC50 (sHAI-1B)/IC50 (KD1) [1]: 3
IC50 (nM), inhibition of enzyme activity on chromogenic substrate [2]: > 2000 nM
IC50 (nM), inhibition of enzyme activity on chromogenic substrate [3]: > 2000 nM
IC50 (nM), inhibition of enzyme activity on chromogenic substrate [4]: > 2000 nM
IC50 (nM), inhibition of enzyme activity on chromogenic substrate [5]: 2.4 nM
IC50 (sHAI-1B)/IC50 (KD1) [5]: 3
IC50 (nM), inhibition of enzyme activity on chromogenic substrate [6]: > 2000 nM
IC50 (nM), inhibition of enzyme activity on chromogenic substrate [7]: > 2000 nM
IC50 (nM), inhibition of enzyme activity on chromogenic substrate [8]: 16.5 nM
IC50 (sHAI-1B)/IC50 (KD1) [8]: 10
IC50 (nM), inhibition of enzyme activity on chromogenic substrate [9]: 21.1 nM
IC50 (sHAI-1B)/IC50 (KD1) [9]: 3
IC50 (nM), inhibition of enzyme activity on chromogenic substrate [10]: > 2000 nM
IC50 (nM), inhibition of enzyme activity on chromogenic substrate (uPA (Chemicon) (human)): > 2000 nM
IC50 (nM), inhibition of enzyme activity on chromogenic substrate [11]: > 2000 nM
IC50 (nM), inhibition of enzyme activity on chromogenic substrate [12]: > 2000 nM
IC50 (nM), inhibition of enzyme activity on chromogenic substrate [13]: 30.5 nM
IC50 (sHAI-1B)/IC50 (KD1) [13]: 8
IC50 (nM), inhibition of enzyme activity on chromogenic substrate [14]: 686 nM
IC50 (sHAI-1B)/IC50 (KD1) [14]: 33
IC50 (nM), inhibition of enzyme activity on chromogenic substrate [15]: > 2000 nM
Substance: sHAI-1B, soluble HAI-1B ectodomain (from UniProt O43278 36-465)
